Assay results reported in publication PMC10540216, “Activity Guided Azide-methyllysine Photo-trapping for Substrate Profiling of Lysine Demethylases” (Journal of the American Chemical Society, 2023).

B1: RBM14_HUMAN (protein, UniProt Q96PK6 1-669, looked up)
RNA-binding protein 14: MKIFVGNVDGADTTPEELAALFAPYGTVMSCAVMKQFAFVHMRENAGALRAIEALHGHELRPGRALVVEMSRPRPLNTWKIFVGNVSAACTSQELRSLFERRGRVIECDVVKDYAFVHMEKEADAKAAIAQLNGKEVKGKRINVELSTKGQKKGPGLAVQSGDKTKKPGAGDTAFPGTGGFSATFDYQQAFGNSTGGFDGQARQPTPPFFGRDRSPLRRSPPRASYVAPLTAQPATYRAQPSVSLGAAYRAQPSASLGVGYRTQPMTAQAASYRAQPSVSLGAPYRGQLASPSSQSAAASSLGPYGGAQPSASALSSYGGQAAAASSLNSYGAQGSSLASYGNQPSSYGAQAASSYGVRAAASSYNTQGAASSLGSYGAQAASYGAQSAASSLAYGAQAASYNAQPSASYNAQSAPYAAQQAASYSSQPAAYVAQPATAAAYASQPAAYAAQATTPMAGSYGAQPVVQTQLNSYGAQASMGLSGSYGAQSAAAATGSYGAAAAYGAQPSATLAAPYRTQSSASLAASYAAQQHPQAAASYRGQPGNAYDGAGQPSAAYLSMSQGAVANANSTPPPYERTRLSPPRASYDDPYKKAVAMSKRYGSDRRLAELSDYRRLSESQLSFRRSPTKSSLDYRRLPDAHSDYARYSGSYNDYLRAAQMHSGYQRRM
B2: MCM3_HUMAN (protein, UniProt P25205 2-808, looked up)
DNA replication licensing …: AGTVVLDDVELREAQRDYLDFLDDEEDQGIYQSKVRELISDNQYRLIVNVNDLRRKNEKRANRLLNNAFEELVAFQRALKDFVASIDATYAKQYEEFYVGLEGSFGSKHVSPRTLTSCFLSCVVCVEGIVTKCSLVRPKVVRSVHYCPATKKTIERRYSDLTTLVAFPSSSVYPTKDEENNPLETEYGLSVYKDHQTITIQEMPEKAPAGQLPRSVDVILDDDLVDKAKPGDRVQVVGTYRCLPGKKGGYTSGTFRTVLIACNVKQMSKDAQPSFSAEDIAKIKKFSKTRSKDIFDQLAKSLAPSIHGHDYVKKAILCLLLGGVERDLENGSHIRGDINILLIGDPSVAKSQLLRYVLCTAPRAIPTTGRGSSGVGLTAAVTTDQETGERRLEAGAMVLADRGVVCIDEFDKMSDMDRTAIHEVMEQGRVTIAKAGIHARLNARCSVLAAANPVYGRYDQYKTPMENIGLQDSLLSRFDLLFIMLDQMDPEQDREISDHVLRMHRYRAPGEQDGDAMPLGSAVDILATDDPNFSQEDQQDTQIYEKHDNLLHGTKKKKEKMVSAAFMKKYIHVAKIIKPVLTQESATYIAEEYSRLRSQDSMSSDTARTSPVTARTLETLIRLATAHAKARMSKTVDLQDAEEAVELVQYAYFKKVLEKEKKRKKRSEDESETEDEEEKSQEDQEQKRKRRKTRQPDAKDGDSYDPYDFSDTEEEMPQVHTPKTADSQETKESQKVELSESRLKAFKVALLDVFREAHAQSIGMNRLTESINRDSEEPFSSVEIQAALSKMQDDNQVMVSEGIIFLI
B3: SC23A_HUMAN (protein, UniProt Q15436 2-765, looked up)
Protein transport protein …: TTYLEFIQQNEERDGVRFSWNVWPSSRLEATRMVVPVAALFTPLKERPDLPPIQYEPVLCSRTTCRAVLNPLCQVDYRAKLWACNFCYQRNQFPPSYAGISELNQPAELLPQFSSIEYVVLRGPQMPLIFLYVVDTCMEDEDLQALKESMQMSLSLLPPTALVGLITFGRMVQVHELGCEGISKSYVFRGTKDLSAKQLQEMLGLSKVPLTQATRGPQVQQPPPSNRFLQPVQKIDMNLTDLLGELQRDPWPVPQGKRPLRSSGVALSIAVGLLECTFPNTGARIMMFIGGPATQGPGMVVGDELKTPIRSWHDIDKDNAKYVKKGTKHFEALANRAATTGHVIDIYACALDQTGLLEMKCCPNLTGGYMVMGDSFNTSLFKQTFQRVFTKDMHGQFKMGFGGTLEIKTSREIKISGAIGPCVSLNSKGPCVSENEIGTGGTCQWKICGLSPTTTLAIYFEVVNQHNAPIPQGGRGAIQFVTQYQHSSGQRRIRVTTIARNWADAQTQIQNIAASFDQEAAAILMARLAIYRAETEEGPDVLRWLDRQLIRLCQKFGEYHKDDPSSFRFSETFSLYPQFMFHLRRSSFLQVFNNSPDESSYYRHHFMRQDLTQSLIMIQPILYAYSFSGPPEPVLLDSSSILADRILLMDTFFQILIYHGETIAQWRKSGYQDMPEYENFRHLLQAPVDDAQEILHSRFPMPRYIDTEHGGSQARFLLSKVNPSQTHNNMYAWGQESGAPILTDDVSLQVFMDHLKKLAVSSAA
B4: XRN2_HUMAN (protein, UniProt Q9H0D6 1-950, looked up)
5'-3' exoribonuclease 2: MGVPAFFRWLSRKYPSIIVNCVEEKPKECNGVKIPVDASKPNPNDVEFDNLYLDMNGIIHPCTHPEDKPAPKNEDEMMVAIFEYIDRLFSIVRPRRLLYMAIDGVAPRAKMNQQRSRRFRASKEGMEAAVEKQRVREEILAKGGFLPPEEIKERFDSNCITPGTEFMDNLAKCLRYYIADRLNNDPGWKNLTVILSDASAPGEGEHKIMDYIRRQRAQPNHDPNTHHCLCGADADLIMLGLATHEPNFTIIREEFKPNKPKPCGLCNQFGHEVKDCEGLPREKKGKHDELADSLPCAEGEFIFLRLNVLREYLERELTMASLPFTFDVERSIDDWVFMCFFVGNDFLPHLPSLEIRENAIDRLVNIYKNVVHKTGGYLTESGYVNLQRVQMIMLAVGEVEDSIFKKRKDDEDSFRRRQKEKRKRMKRDQPAFTPSGILTPHALGSRNSPGSQVASNPRQAAYEMRMQNNSSPSISPNTSFTSDGSPSPLGGIKRKAEDSDSEPEPEDNVRLWEAGWKQRYYKNKFDVDAADEKFRRKVVQSYVEGLCWVLRYYYQGCASWKWYYPFHYAPFASDFEGIADMPSDFEKGTKPFKPLEQLMGVFPAASGNFLPPSWRKLMSDPDSSIIDFYPEDFAIDLNGKKYAWQGVALLPFVDERRLRAALEEVYPDLTPEETRRNSLGGDVLFVGKHHPLHDFILELYQTGSTEPVEVPPELCHGIQGKFSLDEEAILPDQIVCSPVPMLRDLTQNTVVSINFKDPQFAEDYIFKAVMLPGARKPAAVLKPSDWEKSSNGRQWKPQLGFNRDRRPVHLDQAAFRTLGHVMPRGSGTGIYSNAAPPPVTYQGNLYRPLLRGQAQIPKLMSNMRPQDSWRGPPPLFQQQRFDRGVGAEPLLPWNRMLQTQNAAFQPNQYQMLAGPGGYPPRRDDRGGRQGYPREGRKYPLPPPSGRYNWN
B5: SRC8_HUMAN (protein, UniProt Q14247 1-550, looked up)
Src substrate cortactin: MWKASAGHAVSIAQDDAGADDWETDPDFVNDVSEKEQRWGAKTVQGSGHQEHINIHKLRENVFQEHQTLKEKELETGPKASHGYGGKFGVEQDRMDKSAVGHEYQSKLSKHCSQVDSVRGFGGKFGVQMDRVDQSAVGFEYQGKTEKHASQKDYSSGFGGKYGVQADRVDKSAVGFDYQGKTEKHESQRDYSKGFGGKYGIDKDKVDKSAVGFEYQGKTEKHESQKDYVKGFGGKFGVQTDRQDKCALGWDHQEKLQLHESQKDYKTGFGGKFGVQSERQDSAAVGFDYKEKLAKHESQQDYSKGFGGKYGVQKDRMDKNASTFEDVTQVSSAYQKTVPVEAVTSKTSNIRANFENLAKEKEQEDRRKAEAERAQRMAKERQEQEEARRKLEEQARAKTQTPPVSPAPQPTEERLPSSPVYEDAASFKAELSYRGPVSGTEPEPVYSMEAADYREASSQQGLAYATEAVYESAEAPGHYPAEDSTYDEYENDLGITAVALYDYQAAGDDEISFDPDDIITNIEMIDDGWWRGVCKGRYGLFPANYVELRQ
B6: SFPQ_HUMAN (protein, UniProt P23246 1-707, looked up)
Splicing factor, proline- and …: MSRDRFRSRGGGGGGFHRRGGGGGRGGLHDFRSPPPGMGLNQNRGPMGPGPGQSGPKPPIPPPPPHQQQQQPPPQQPPPQQPPPHQPPPHPQPHQQQQPPPPPQDSSKPVVAQGPGPAPGVGSAPPASSSAPPATPPTSGAPPGSGPGPTPTPPPAVTSAPPGAPPPTPPSSGVPTTPPQAGGPPPPPAAVPGPGPGPKQGPGPGGPKGGKMPGGPKPGGGPGLSTPGGHPKPPHRGGGEPRGGRQHHPPYHQQHHQGPPPGGPGGRSEEKISDSEGFKANLSLLRRPGEKTYTQRCRLFVGNLPADITEDEFKRLFAKYGEPGEVFINKGKGFGFIKLESRALAEIAKAELDDTPMRGRQLRVRFATHAAALSVRNLSPYVSNELLEEAFSQFGPIERAVVIVDDRGRSTGKGIVEFASKPAARKAFERCSEGVFLLTTTPRPVIVEPLEQLDDEDGLPEKLAQKNPMYQKERETPPRFAQHGTFEYEYSQRWKSLDEMEKQQREQVEKNMKDAKDKLESEMEDAYHEHQANLLRQDLMRRQEELRRMEELHNQEMQKRKEMQLRQEEERRRREEEMMIRQREMEEQMRRQREESYSRMGYMDPRERDMRMGGGGAMNMGDPYGSGGQKFPPLGGGGGIGYEANPGVPPATMSGSMMGSDMRTERFGQGGAGPVGGQGPRGMGPGTPAGYGRGREEYEGPNKKPRF
B7: ZYX_HUMAN (protein, UniProt Q15942 2-572, looked up)
Zyxin: AAPRPSPAISVSVSAPAFYAPQKKFGPVVAPKPKVNPFRPGDSEPPPAPGAQRAQMGRVGEIPPPPPEDFPLPPPPLAGDGDDAEGALGGAFPPPPPPIEESFPPAPLEEEIFPSPPPPPEEEGGPEAPIPPPPQPREKVSSIDLEIDSLSSLLDDMTKNDPFKARVSSGYVPPPVATPFSSKSSTKPAAGGTAPLPPWKSPSSSQPLPQVPAPAQSQTQFHVQPQPQPKPQVQLHVQSQTQPVSLANTQPRGPPASSPAPAPKFSPVTPKFTPVASKFSPGAPGGSGSQPNQKLGHPEALSAGTGSPQPPSFTYAQQREKPRVQEKQHPVPPPAQNQNQVRSPGAPGPLTLKEVEELEQLTQQLMQDMEHPQRQNVAVNELCGRCHQPLARAQPAVRALGQLFHIACFTCHQCAQQLQGQQFYSLEGAPYCEGCYTDTLEKCNTCGEPITDRMLRATGKAYHPHCFTCVVCARPLEGTSFIVDQANRPHCVPDYHKQYAPRCSVCSEPIMPEPGRDETVRVVALDKNFHMKCYKCEDCGKPLSIEADDNGCFPLDGHVLCRKCHTARAQT
B8: SYAM_HUMAN (protein, UniProt Q5JTZ9 24-985, looked up)
Alanine--tRNA ligase, …: GLSHRPLSSEPPAAKASAVRAAFLNFFRDRHGHRLVPSASVRPRGDPSLLFVNAGMNQFKPIFLGTVDPRSEMAGFRRVANSQKCVRAGGHHNDLEDVGRDLSHHTFFEMLGNWAFGGEYFKEEACNMAWELLTQVYGIPEERLWISYFDGDPKAGLDPDLETRDIWLSLGVPASRVLSFGPQENFWEMGDTGPCGPCTEIHYDLAGGVGAPQLVELWNLVFMQHNREADGSLQPLPQRHVDTGMGLERLVAVLQGKHSTYDTDLFSPLLNAIQQGCRAPPYLGRVGVADEGRTDTAYRVVADHIRTLSVCISDGIFPGMSGPPLVLRRILRRAVRFSMEILKAPPGFLGSLVPVVVETLGDAYPELQRNSAQIANLVSEDEAAFLASLERGRRIIDRTLRTLGPSDMFPAEVAWSLSLCGDLGLPLDMVELMLEEKGVQLDSAGLERLAQEEAQHRARQAEPVQKQGLWLDVHALGELQRQGVPPTDDSPKYNYSLRPSGSYEFGTCEAQVLQLYTEDGTAVASVGKGQRCGLLLDRTNFYAEQGGQASDRGYLVRAGQEDVLFPVARAQVCGGFILHEAVAPECLRLGDQVQLHVDEAWRLGCMAKHTATHLLNWALRQTLGPGTEQQGSHLNPEQLRLDVTTQTPLTPEQLRAVENTVQEAVGQDEAVYMEEVPLALTAQVPGLRSLDEVYPDPVRVVSVGVPVAHALDPASQAALQTSVELCCGTHLLRTGAVGDLVIIGDRQLSKGTTRLLAVTGEQAQQARELGQSLAQEVKAATERLSLGSRDVAEALRLSKDIGRLIEAVETAVMPQWQRRELLATVKMLQRRANTAIRKLQMGQAAKKTQELLERHSKGPLIVDTVSAESLSVLVKVVRQLCEQAPSTSVLLLSPQPMGKVLCACQVAQGAMPTFTAEAWALAVCSHMGGKAWGSRVVAQGTGSTTDLEAALSIAQTYALSQL

System: KDM4A-I71AzF
Test: CASI: photo-crosslinking with HEK293T cell extracts, StrepTactin enrichment and LC-MS/MS proteomics;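 also: lysates from HEK293T cells pretreated with a KDM4 inhibitor to raise proteome methylation, affinity-purified after ±UV, gel-resolved, trypsin-digested, with exclusive unique peptides per protein averaged per condition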
Format: binding, human
Settings: sheet "Final results but with 0.01"

Molecule	Fold change (+UV/-UV)
B1	2
B2	1.2
B3	0.5
B4	2.5
B5	0.8
B6	0.9
B7	0
B8	0.625
